The target in one data set is T1, LyPls-PLD (rLyPls-PLD) (Thermocrispum sp. RD004668, UniProt A0A0U4VTN7).
T1 construct: gene lyspls; pET24a(+), E. coli SHuffle T7, HisTrap purified; kinetics calculated as monomer
The data set is described as follows: inhibition of LyPlsCho hydrolysis, choline oxidase/peroxidase colorimetric assay. Format: biochemical. The following applies: read-out: Relative activity (%) ^a. The source says:
inhibition of LyPlsCho hydrolysis, choline oxidase/peroxidase colorimetric assay on LyPls-PLD (rLyPls-PLD)

Substrate in data set [1]: CCCCCCCCCCCCCCCC/C=C\OC[C@@H](O)COP(=O)([O-])OCC[N+](C)(C)C
Kind of data set: choline release, choline oxidase/peroxidase colorimetric assay; nonlinear Michaelis-Menten fit. Format: biochemical, Thermocrispum sp. RD004668. The following applies: 80 mM Tris/HCl pH 8.0, 50 °C, 2 mM CaCl2, 30 s. The source says: choline release, choline oxidase/peroxidase colorimetric assay; nonlinear Michaelis-Menten fit on LyPls-PLD (rLyPls-PLD)

Substrate in the data set “purified protein”: CCCCCCCCCCCCCCCC/C=C\OC[C@@H](O)COP(=O)(O)OCCN
The data set is described as follows: purified protein. The note with it: 80 mM Tris/HCl pH 8.0, 50 °C.

Substrate in data set [2]: CCCCCCCCCCCCCCCC/C=C\OC[C@@H](O)COP(=O)([O-])OCC[N+](C)(C)C
Kind of data set: choline release, choline oxidase/peroxidase colorimetric assay; Hanes-Woolf plot. Format: biochemical, Thermocrispum sp. RD004668. The following applies: 80 mM Tris/HCl pH 8.0, 50 °C, 2 mM CaCl2. An excerpt: choline release, choline oxidase/peroxidase colorimetric assay; Hanes-Woolf plot on LyPls-PLD (rLyPls-PLD)

Substitutions are numbered along the chain they refer to. In names and notes the source's numbering stands.

With `CCCCCCCCCCCCCCCC(=O)OC[C@@H](O)COP(=O)([O-])OCC[N+](C)(C)C` [LPC, 1‐palmitoyl‐2‐hydroxy‐sn‐glycero‐3‐phosphocholine], at LyPls-PLD (rLyPls-PLD), the activity at 4000 µM was determined as 60.7 ± 0.5%.

Turning to `CCCCCCCCCCCCCCCCCC(=O)OC[C@@H](O)COP(=O)(O)O` [LPA, 1‐stearoyl‐2‐hydroxy‐sn‐glycero‐3‐phosphate], the activity at 4000 µM on LyPls-PLD (rLyPls-PLD) came out at 89.8 ± 0.3%.

B1: LyPls-PLD (rLyPls-PLD) (Thermocrispum sp. RD004668) (protein)
chain: TTRTTDNPWLDARVLNMAHAGGENEAPANTLYAFKRAVKLGANMLELDVQSTKDDQLVVIHNATVDQTTDGTGKVRDLTFEQVHELDAAYNFIPGRHAVPGEPPESYPLRGVRTGEKKPPPGYQPSDFAIPKLADVLEAFPRTPINIEIKGTSDADIPSFLHNAKLLARLLKKTGRTDFIVTSFNDLAVAKFHLLAPDIPIAPGMAGLAAYFLLGVKPMHGTVALQIPVRYQGLEIATPEFIRRAHADGYAVHVWFSGTAPDDEATYNRIIDSCADGLMPAYPALLERILDERGIERPGRPGVDPCG
notes: pET24a(+), E. coli SHuffle T7, HisTrap purified; kinetics calculated as monomer
In general, Km refers to the concentration of substrate that gives half-maximal velocity. The term kcat denotes the number of substrate molecules converted per active site and unit of time at saturation. As usually defined, the kcat/Km is the turnover number divided by the Michaelis constant. In the case of B1, in data set [1], the Michaelis-Menten constant (Km) was found to be 13.2 µM, the turnover number (kcat) is 70.6 s⁻¹ and the kcat/Km was 5.34e+06 M⁻¹ s⁻¹. In addition, in “purified protein” (2 mM CaCl2, 3 min), the Km is 456 µM, the kcat was 4.51 s⁻¹ and the kcat/Km was determined as 9900 M⁻¹ s⁻¹.

B2: LyPls-PLD (rLyPls-PLD) (Thermocrispum sp. RD004668; F211A) (protein)
chain: B1 chain with F184A
notes: as for B1
Regarding B2, in data set [2], the Km was determined as 112 µM, the kcat stood at 24.8 s⁻¹ and the catalytic efficiency (kcat/Km) was determined as 221000 M⁻¹ s⁻¹. In “purified protein” (2 mM CaCl2), the Km turned out to be 281 µM, the kcat stood at 2.88 s⁻¹ and the kcat/Km amounted to 10300 M⁻¹ s⁻¹.

The values are drawn from publication PMC5095149, “Molecular cloning, heterologous expression, and enzymatic characterization of lysoplasmalogen‐specific phospholipase D from Thermocrispum sp” (FEBS Open Bio, 2016).
